{"source": "the nanobody polyreactivity screen of Harvey et al. (2022)"}
{"experiment": "yeast display, Sf9 membrane polyspecificity reagent, FACS + sequencing; frameworks hold sequencing errors", "procedure,_shortened": "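Sorting gates, low and high (top ~1%), were placed on anti-HA fluorescence to track expression and on streptavidin fluorescence to track reagent binding. A clone's polyreactivity label is taken from the gate it came out of. The reagent was 10% biotinylated, detergent-solubilized Sf9 membrane, applied for 1 hour at 4 °C to galactose-induced yeast display cells.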"}
{"sequence": "QVQLVESGGGLVQAGGSLRLSCAASGSNFSRNTMGWYRQAPWKERELVAGISSSGSRTYYADSVKGRFTISRDNAKNTVYLLMNSLKPEDTAVYYCAAEHQRSRGRRYYIGYDYWGQGTQVTVSS", "polyreactivity (PSR sort gate)": "low polyreactivity"}
{"sequence": "QVQLVESGGGLVQAGGSLRLSCAASGSNFTAYAMGWYRQAPGKERELVAAIDDSGDSTYYADSVKGRFTISRDNSKNTVYLQMNSLKPEDTAVYYCKAEYRVNKEYDYWGQGTQVTVSS", "polyreactivity (PSR sort gate)": "low polyreactivity"}
{"sequence": "QVQLVESGGGLVQAGGSLRLSCAASGSNFTAYAMGWYRQAPGKERELVAAITKSSVTYYADSVKGRFTISRDNAKNTVYLQMNSVKPEDTAVYYCAGYSPRPSDLYSPIAYYYWGQGTLVTVSS", "polyreactivity (PSR sort gate)": "low polyreactivity"}
{"sequence": "QVQLVESGGGLVQAGGSLRLSCAASGSNFTGYGMGWYRQAPGKETELVAAITWSGGSTYYADSVKGRFTISRDNAKNTVYLQMNSLKPEDTAVYYCATPGIYYEMDYWGQGTQVTVSS", "polyreactivity (PSR sort gate)": "low polyreactivity"}
{"sequence": "QVQLVESGGGLVQAGGSLRLSCAASGSNFTSNGMGWYRQAPGKERELVAAITRRGGRTYYADSVKGRFTISRDNAKNTVYLQMNSLKPEDTAVYYCAAKSTSLYDYWGQGTQVTVSS", "polyreactivity (PSR sort gate)": "low polyreactivity"}
{"sequence": "QVQLVESGGGLVQAGGSLRLSCAASGSNFTVYDMGWYRQAPGKERELVAAISFSGGSTYYADSVKGRFTISRDTAKNTVYLQMNSLKPVDTAVYYCAADTYTTPYEYWGQGTQVTVSS", "polyreactivity (PSR sort gate)": "low polyreactivity"}
{"sequence": "QVQLVESGGGLVQAGGSLRLSCAASGSNFVKYVMGWSRQAPGKERELVAAITWRGGRTYYADSVKGRFTISRDNEKNTVYLQMNSLKPEDTAVYYCAAYDQSLYGRRYDYWGQGTQVTVST", "polyreactivity (PSR sort gate)": "high polyreactivity"}
{"sequence": "QVQLVESGGGLVQAGGSLRLSCAASGSNFYRNAMGWYRQAPGKERELVAGIRWTGTRTYYADSVKGRFTISRDNAKNTVYLQMNSLKPEDTAVYYCNAVYSLSNAVDGDYWGQVTQVTVSS", "polyreactivity (PSR sort gate)": "high polyreactivity"}
{"sequence": "QVQLVESGGGLVQAGGSLRLSCAASGSNIGTYAMGWYRQAPGKERELVAAISSSGGRTYYADSVKGRFTISRDNAKNTVYLQMNSLKPEDTAVYYCATKRVLTGYDSWGQGTQVTVSS", "polyreactivity (PSR sort gate)": "high polyreactivity"}
{"sequence": "QVQLVESGGGLVQAGGSLRLSCAASGSNITPNAMGWYRQAPGKERELVAAISSSSDRTYYADSVKGRFTISRDNAKNTVYLQMNSLKPEDTAVYYCAAYAQKRYYWGQGTQVTVSS", "polyreactivity (PSR sort gate)": "high polyreactivity"}
{"sequence": "QVQLVESGGGLVQAGGSLRLSCAASGSNSDPYAMGWYRQAPGKEREFVAAITFSVSSTYYADSVKGRFTISRDNAKNTVYLQMNSLKPEDTAVYYCAARRPLYPERDYWGQGTQVTVSS", "polyreactivity (PSR sort gate)": "high polyreactivity"}
{"sequence": "QVQLVESGGGLVQAGGSLRLSCAASGSNYGFYAMGWYRKAPGKERELVAVISSDGSTNYADSVKGRFTISRDNAKNTVYLQMNSLKPEDTAVYYCAADWSITYGDGGYWGQGTQVTVSS", "polyreactivity (PSR sort gate)": "low polyreactivity"}
{"sequence": "QVQLVESGGGLVQAGGSLRLSCAASGSNYSGYAMGWARQAPGKERELVAAITKSGGRTYYADSVKGRFTISRDNAKNTVYLQMNSLKPEDTAVYYCAKAYPGTYREYDYWGQGTQVTVSS", "polyreactivity (PSR sort gate)": "high polyreactivity"}
{"sequence": "QVQLVESGGGLVQAGGSLRLSCAASGSPFHRYVMGWYRQAPGKERELVAVINSTGGSTYYADSVKGRFTISRDHAKNTVDLQMNSLKPEDTAVYYCNAVRDWGPSQVYDGMDYWGQGTQVTVSS", "polyreactivity (PSR sort gate)": "low polyreactivity"}
{"sequence": "QVQLVESGGGLVQAGGSLRLSCAASGSPFSRNAMGWYRPAPGKEREMVAAISYSGGSTYYADSVKGRFTISRDNAKNTVYLQLNSLKPEDTAVYYCNTYIVNYSGQEMVYWGQGTQVTVSS", "polyreactivity (PSR sort gate)": "high polyreactivity"}
{"sequence": "QVQLVESGGGLVQAGGSLRLSCAASGSPSQPYAMGWYRQAPGKVRELVASITNGGITYYADSVKGRFPISRDNANNTVELQMNSLKPEDTAVYYCARTGPSAYWEFDYWGQGTQVTVSS", "polyreactivity (PSR sort gate)": "low polyreactivity"}
{"sequence": "QVQLVESGGGLVQAGGSLRLSCAASGSPSYFNVKGWYRQAPGKERQLVAAISWSGGSTYADSVKGRFTISRDNAKNTVYLQMNSLKREDTAFYYCNKDYGYVQLRFYCPGYYWGQGTQVTVSS", "polyreactivity (PSR sort gate)": "low polyreactivity"}
{"sequence": "QVQLVESGGGLVQAGGSLRLSCAASGSSFEPNAMGWYRQAPGKERELVASITSSGGNTYYADSVKGRFTISRDNAKNTVYLQMNSLKPEDTAVYSCAAGSGYAFGGYYLWGFGYWGQGTQVTVSS", "polyreactivity (PSR sort gate)": "low polyreactivity"}
{"sequence": "QVQLVESGGGLVQAGGSLRLSCAASGSSFRRYAMGWSRQAPGKERELVASITASGGSTYYADSVKGRFTISRDNAKNTVYLQMNSLKAEDTAVYYCNKDTIKSYYRRYDSWGQGTQVTVSS", "polyreactivity (PSR sort gate)": "low polyreactivity"}
{"sequence": "QVQLVESGGGLVQAGGSLRLSCAASGSSFTWYAMGWYRQAPGKERELVAAITRGGSTYADSVKGRFTISRDNAKNTVYLQMNSLKPEDTAVYYCNAVYGVYDFNYWGQGTQVTVSS", "polyreactivity (PSR sort gate)": "low polyreactivity"}
{"sequence": "QVQLVESGGGLVQAGGSLRLSCAASGSTAYVMGWYRQAPGKETELVAAISKSGGSTYYADSVKGRFTISRDNAKNTVYLQMNSLKPEDTAVYYCSALYPTTTAYRYGYWGQGTQVTVSS", "polyreactivity (PSR sort gate)": "high polyreactivity"}
{"sequence": "QVQLVESGGGLVQAGGSLRLSCAASGSTCGTNAMGWYRQAPGKERELVAAITWSGGRTYYADSVKGRFTISRDNAKNTVYLQMISLKPEDTAVYYCNAGYSYRRRNGYGYDYWGQGTQVTVSS", "polyreactivity (PSR sort gate)": "high polyreactivity"}
{"sequence": "QVQLVESGGGLVQAGGSLRLSCAASGSTFAANTMGWYRQAPGKERELVAAITVRGGSTYYADSVKGRFTISRDNAKNTVYLLMQSLKPEDTAVYYCAAERPPYGYLVVGYVSTQYYYWGQGTQVTVSS", "polyreactivity (PSR sort gate)": "low polyreactivity"}
{"sequence": "QVQLVESGGGLVQAGGSLRLSCAASGSTFAFNAMGWYRQAPGQERELVAGITWSSGSTYYADSVKGRFTISRDNAKNTVYLQMNSLKPEDTAVYYCNVQSVHFRLWKDNYWGQGTQVTVSS", "polyreactivity (PSR sort gate)": "high polyreactivity"}
{"sequence": "QVQLVESGGGLVQAGGSLRLSCAASGSTFAFYAMGWYRQAPGKERELVAAITWRVGSTYYADSVKGRFTISRDNAKNTVYLQMNSLKPEDTAVYYCAVDIPFYDSDYWGQGTQVTVSS", "polyreactivity (PSR sort gate)": "low polyreactivity"}
{"sequence": "QVQLVESGGGLVQAGGSLRLSCAASGSTFAGNAMGWYRQAPGKERELFAAITFSGGRTDYADSVKGRFTISRDNAKNTVYLQMNSLKPEDTAVYYCAAPADVTVHYLNYYWGQGTQVTVSS", "polyreactivity (PSR sort gate)": "low polyreactivity"}
{"sequence": "QVQLVESGGGLVQAGGSLRLSCAASGSTFAGNPMGWYRQATGKERELVAAIDSSTGSTYYADSVKGRFTISRDNAMNTVYLQMNSLKPEDTAVYYCNKTSFLVKLDYWGQGTQVTVSS", "polyreactivity (PSR sort gate)": "low polyreactivity"}
{"sequence": "QVQLVESGGGLVQAGGSLRLSCAASGSTFAGYAMGWYRQAPGKERELVAAIRSGGSTYYADSVKGRFTISRDNAKNTVYLQMNSLKPEDTAVYYCNAVYAFNGYDYWGQVTQVTVSS", "polyreactivity (PSR sort gate)": "low polyreactivity"}
{"sequence": "QVQLVESGGGLVQAGGSLRLSCAASGSTFAGYAMGWYRQAPGKERELVAAISWNGGSTYYADSVKGRFTISRDNAKNTVYLQMNSLKPEDTAVYYCAKARYYSWKGKGDYWGQGTQVTVSS", "polyreactivity (PSR sort gate)": "high polyreactivity"}
{"sequence": "QVQLVESGGGLVQAGGSLRLSCAASGSTFAIYAMGWYRQAPGKERELVAAISKSGGSTYYADSVKGRFTISRDNAKNTVYLQMNILKPEDTAVYYCARRQYAFGPYGFYYWGQGTQVTVSS", "polyreactivity (PSR sort gate)": "high polyreactivity"}
{"sequence": "QVQLVESGGGLVQAGGSLRLSCAASGSTFAKNAMGWYRQAPGKERELVAAITYSGGSTYYADSVKGRFTISRDYAKNTVYLEMYSLKPEYTAVYYCAADVWWSYFRYDYWGQGTQVTVSW", "polyreactivity (PSR sort gate)": "low polyreactivity"}
{"sequence": "QVQLVESGGGLVQAGGSLRLSCAASGSTFALNAMGWYRQAPGKERELVAAITTGGHTYYADSVKGRFTISRDNAKNTDYLQMNSLKPEDTAVYYCATVFYFDYYYHYDYWGQGTQVTVSS", "polyreactivity (PSR sort gate)": "low polyreactivity"}
